According to article PMC2683891:

How the values were obtained:
Assay in all cases: purified protein
Assay type in all cases: biochemical, Campylobacter jejuni
Settings in all cases: 100 mM HEPES pH 7.5, 200 mM KCl, 1.8 mM DTNB, 25 °C
[1] = substrate: CCCCCC(=O)SCCNC(=O)CCNC(=O)[C@H](O)C(C)(C)COP(=O)(O)OP(=O)(O)OC[C@H]1O[C@@H](n2cnc3c(N)ncnc32)[C@H](O)[C@@H]1OP(=O)(O)O
[2] = substrate: CCCCCCCCCCCCCCCC(=O)SCCNC(=O)CCNC(=O)[C@H](O)C(C)(C)COP(=O)(O)OP(=O)(O)OC[C@H]1O[C@@H](n2cnc3c(N)ncnc32)[C@H](O)[C@@H]1OP(=O)(O)O
[3] = substrate: CCCC(=O)SCCNC(=O)CCNC(=O)[C@H](O)C(C)(C)COP(=O)(O)OP(=O)(O)OC[C@H]1O[C@@H](n2cnc3c(N)ncnc32)[C@H](O)[C@@H]1OP(=O)(O)O
[4] = substrate: CCCCCCCCCCCC(=O)SCCNC(=O)CCNC(=O)[C@H](O)C(C)(C)COP(=O)(O)OP(=O)(O)OC[C@H]1O[C@@H](n2cnc3c(N)ncnc32)[C@H](O)[C@@H]1OP(=O)(O)O

B1: Cj0915 (Campylobacter jejuni subsp. jejuni NCTC 11168 = ATCC 700819) (protein)
chain: MRDMGEPKLKIVAMPSDTNPAGNIFGGWILSQIDLAGAIAARELSPERVVTISMDKVVFKEPVFIGDIISCYSKVVNVGNTSISVEVEVTAQRVDSQGCTSCINVTSALVTYVSVTRDGKKNPISEELKRIHGFLNA
Protein B1 has a Km [1] of 39.3 ± 15.2 µM, a Vmax [1] of 54.3 µmol/min/mg and a kcat [1] of 13.4 ± 2 s⁻¹. It also gave a kcat/Km [1] of 340000 M⁻¹ s⁻¹, a Km [2] of 10.6 ± 0.6 µM and a Vmax [2] of 38.9 µmol/min/mg. The kcat [2] was 9.6 ± 0.3 s⁻¹, the kcat/Km [2] was 910000 M⁻¹ s⁻¹ and the Km [3] was 40.8 ± 10.3 µM. For the same protein, the Vmax [3] was 55 µmol/min/mg, the kcat [3] was 13.6 ± 1.3 s⁻¹ and the kcat/Km [3] was 330000 M⁻¹ s⁻¹. It also gave a Km [4] of 13.9 ± 1.4 µM, a Vmax [4] of 63.3 µmol/min/mg and a kcat [4] of 15.6 ± 0.7 s⁻¹. The kcat/Km [4] was 1.1e+06 M⁻¹ s⁻¹.
